For series [1], the target named is EcoRNAP sigma70 holoenzyme (Escherichia coli) (UniProt P0A7Z4+P0A8V2+P0A8T7+P0A800+P00579). The series is described as follows: stopped-flow Cy3 fluorescence enhancement. The conditions noted are these: scale: fold fluorescence enhancement.
For series [2], the target named is EcoRNAP sigma70 holoenzyme (Escherichia coli, UniProt P0A7Z4;P0A8V2;P0A8T7;P0A800;P00579 1-329;1-1342;1-1407;2-91;1-613). As to the kind of experiment: 25 C, no CarD.

With template lacking rrnAP3 promoter, Cy3, the binding signal in series [1] is 0.05.

B1: rrnAP3 150 bp template, +2 Cy3 (dsDNA)
DNA 1: AAAATAGGCGTATCACGAGGCCCTTTCGTCTTCAAGAATTCGTCTTGACTCCATTGCCGGATTTGTATTAGACTGGCAGGGTTGAAGCTTATGTATCACCTGACGTCATGATGAACTCAGAAGTGAAACTACGTATATCCGATGGTAGTG
DNA 2: CACTACCATCGGATATACGTAGTTTCACTTCTGAGTTCATCATGACGTCAGGTGATACATAAGCTTCAACCCTGCCAGTCTAATACAAATCCGGCAATGGAGTCAAGACGAATTCTTGAAGACGAAAGGGCCTCGTGATACGCCTATTTT
modifications: C6-amine on non-template +2 T
Take B1: the “apparent K (half saturation)” value in series [2] came out at 23 nM.
